From the supplement of paper PMC9170038

System: MS2 coat protein
Assay: apparent KD of MS2 coat protein; designed switch direction (-1 OFF switch, 1 ON switch): -1; higher = weaker reporter binding
Method in brief: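 An oligonucleotide input, 200 uM small-molecule ligand, or no input was present during titration of SNAP-549-labelled MS2 coat protein, which was doubled from 0.7 or 1.5 nM to 3 µM. Designed RNA switches had been transcribed on Illumina chips by stalled E. coli RNA polymerase. Apparent KD per design is the median over clusters of curves fitted to normalised cluster fluorescence.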

[1] = input ligand: microRNA oligo, concentration not stated
[2] = Eterna round: R95, input ligand: FMN 200 uM
[3] = Eterna round: R95, input ligand: microRNA oligo, concentration not stated
[4] = Eterna round: R95, input ligand: none

UUGACGGCAGGAUAUACAUGAGGAUCACCCAUGUAAAUUUUUCGUUUAACUUGAAUGUGUAGAAGGGCCAAACC [Ex3 #77] (Eterna round: R97, puzzle: Exclusion 3)
apparent KD of MS2 coat protein (input ligand: FMN 200 uM): 19.4 nM
apparent KD of MS2 coat protein (input ligand: none): 20.4 nM

UUGCAGUCGUCAGGAUAUAGUAUUACGGCCUUUUAUUUCUUCAUACAUGAGGAUCACCCAUGUCGCUAGAAGGGAUUAUCGAUU [salish99_ExNG2_r04_105] (Eterna round: R96, puzzle: Exclusion NG 2)
apparent KD of MS2 coat protein (input ligand: FMN 200 uM): 17.8 nM
apparent KD of MS2 coat protein [1]: 14.2 nM
apparent KD of MS2 coat protein (input ligand: none): 22.2 nM

UUGCCUAGUGUUAGGAUAUGCGACGGGUGACCGUUGCAGAAGGAACAUGAGGAUCACCCAUGUUUAAUAAAAUC [JL-BMX4-4.44 ViennaUCT mod] (Eterna round: R97, puzzle: Brourd's mod of Exclusion 4)
apparent KD of MS2 coat protein (input ligand: FMN 200 uM): 35.9 nM
apparent KD of MS2 coat protein (input ligand: none): 13.2 nM

UUGCUCCCUUAGUACUCUACAAGUUUUUUGUUCGUUUUAACAUGAGGAUCACCCAUGUCUAGUGGAUCUGAUCGGGU [JL ViennaUCT Isreen mod 5] (puzzle: Sensor v3, turn-off variant 2)
apparent KD of MS2 coat protein [2]: 172 nM
apparent KD of MS2 coat protein [3]: 336 nM
apparent KD of MS2 coat protein [4]: 178 nM

UUGGUUGUGGUAGGAUAUCCGUUGGAAACCGUCGGAGAAGGACCACAGUCACUGGGUCCUUGUCUGGUGGACUGGAAUCACCAU [pwkr exNG1 F6.15] (Eterna round: R96, puzzle: Exclusion NG 1)
apparent KD of MS2 coat protein (input ligand: FMN 200 uM): 153 nM
apparent KD of MS2 coat protein [1]: 172 nM
apparent KD of MS2 coat protein (input ligand: none): 184 nM

UUGUACAUAGGAUAUAGUUGUUUGUACAUGAGGAUCACCCAUGUUAUGUAUGUUUUGUUUCUAGAAGGAUGUUGAU [JR_E5_Sub003] (puzzle: Exclusion 5)
apparent KD of MS2 coat protein [3]: 47.1 nM

UUGUUACAUGAGGAUCACCCAUGUGAGGAUAUGAGGGUUAGCUUAAAUGGGCUGACUUUCAGAAGGCACAUGAA [JR_Ex1_Sub058] (Eterna round: R97, puzzle: Exclusion 1)
apparent KD of MS2 coat protein (input ligand: FMN 200 uM): 327 nM
apparent KD of MS2 coat protein (input ligand: none): 235 nM

UUGUUAUAUGUAGGAUAUGCAUAUUAUUAUUAUGCAGAAGGACAUGAGGAUCACCCAUGUGUAUUGUUAUUAUAUAUUAUAUAU [Title] (Eterna round: R96, puzzle: Exclusion NG 1)
apparent KD of MS2 coat protein [1]: 16.5 nM

UUGUUAUAUGUAGGAUAUGCAUAUUAUUAUUGUGCAGAAGGACAUGAGGAUCACCCAUGUAUAUUAUUAUUAUAUAUUAUAUAU [Title] (Eterna round: R96, puzzle: Exclusion NG 1)
apparent KD of MS2 coat protein [1]: 26.1 nM

UUGUUAUAUGUAGGAUAUGCAUAUUGUUAUUAUGCAGAAGGACAUGAGGAUCACCCAUGUAUAUUAUUAUUAUAUAUUAUAUAU [Title] (Eterna round: R96, puzzle: Exclusion NG 1)
apparent KD of MS2 coat protein [1]: 22.5 nM

UUGUUAUGUGUAGGAUAUGCGUGUUAUUAUUAUGCAGAAGGACAUGAGGAUCACCCAUGUGUAUUAUUAUUAUAUAUUAUAUAU [Title] (Eterna round: R96, puzzle: Exclusion NG 1)
apparent KD of MS2 coat protein (input ligand: FMN 200 uM): 20 nM
apparent KD of MS2 coat protein [1]: 15.8 nM
apparent KD of MS2 coat protein (input ligand: none): 19.9 nM

UUGUUGUAUGUAGGAUAUGCAUAUUAUUGUUAUGCAGAAGGACAUGAGGAUCACCCAUGUAUAUUAUUAUUAUAUGUUAUAUAU [Title] (Eterna round: R96, puzzle: Exclusion NG 1)
apparent KD of MS2 coat protein (input ligand: FMN 200 uM): 35.1 nM
apparent KD of MS2 coat protein [1]: 21 nM
apparent KD of MS2 coat protein (input ligand: none): 28 nM

UUUAAACUUACAAUCUUCGCUGGCAUGCUUGUGCCAGCUACAUGAGGAUCACCCAUGUUUUUUGCUCGUCUUAUUCU [Usre] (puzzle: Sensor v3, turn-off variant 2)
apparent KD of MS2 coat protein [2]: 23.5 nM
apparent KD of MS2 coat protein [4]: 25.1 nM

UUUAAUGGAAUUAAGAUCACAUGAGGAUCACCCAUGUAUAUAUAGGAUAUCAGCUCGAUUAGAGCUGAGAAGGAUAUAUACAUA [ExNG3/6-B1] (Eterna round: R96, puzzle: Exclusion NG 3)
apparent KD of MS2 coat protein (input ligand: FMN 200 uM): 31.6 nM
apparent KD of MS2 coat protein [1]: 199 nM
apparent KD of MS2 coat protein (input ligand: none): 91.6 nM

UUUAAUUUAAUUAAGAUCACAUGAGGAUCACCCAUGUAUAUAUAGGAUAUCAGCUCGAUUAGAGCUGAGAAGGAUAUAUACAUA [ExNG3/4-A1] (Eterna round: R96, puzzle: Exclusion NG 3)
apparent KD of MS2 coat protein (input ligand: FMN 200 uM): 164 nM
apparent KD of MS2 coat protein [1]: 215 nM
apparent KD of MS2 coat protein (input ligand: none): 58.9 nM

UUUAAUUUUUUUUUUUUACAAGCUUUUUGCUCGUCUUAUACAUGAGGAUCACCCAUGUAAAUGGAAGAUAAAUUAUC [JMF 7] (puzzle: Sensor v3, turn-off variant 2)
apparent KD of MS2 coat protein [2]: 16.7 nM
apparent KD of MS2 coat protein [3]: 18.1 nM
apparent KD of MS2 coat protein [4]: 17.3 nM

UUUAAUUUUUUUUUUUUACAAGCUUUUUGCUCGUCUUAUACAUGAGGAUCACCCAUGUAGGUGGGAGGUAAAUUAUC [JMF 79] (puzzle: Sensor v3, turn-off variant 2)
apparent KD of MS2 coat protein [2]: 40.8 nM
apparent KD of MS2 coat protein [3]: 116 nM
apparent KD of MS2 coat protein [4]: 43.8 nM

UUUAAUUUUUUUUUUUUACAAGCUUUUUGCUCGUCUUAUACAUGAGGAUCACCCAUGUGAGUGAGGGAUAAAUUAUC [JMF 41] (puzzle: Sensor v3, turn-off variant 2)
apparent KD of MS2 coat protein [2]: 19.4 nM
apparent KD of MS2 coat protein [3]: 23.9 nM
apparent KD of MS2 coat protein [4]: 16.7 nM

UUUAAUUUUUUUUUUUUACAAGCUUUUUGCUCGUCUUAUACAUGAGGAUCACCCAUGUGGAUGGAGGGUAAAUUAUC [JMF 85] (puzzle: Sensor v3, turn-off variant 2)
apparent KD of MS2 coat protein [2]: 14.4 nM
apparent KD of MS2 coat protein [3]: 25.6 nM
apparent KD of MS2 coat protein [4]: 16.9 nM

UUUAAUUUUUUUUUUUUACAAGCUUUUUGCUCGUCUUAUACAUGAGGAUCACCCAUGUGGAUGGGAAAUGAAUUAUC [JMF 97] (puzzle: Sensor v3, turn-off variant 2)
apparent KD of MS2 coat protein [2]: 18.6 nM
apparent KD of MS2 coat protein [3]: 115 nM
apparent KD of MS2 coat protein [4]: 19.7 nM

UUUACAAGCUAUUGAUCCCACAUGAGGAUCACCCAUGUUGCUGCCGGUGACGGUAGCAUAACAAUUGCUCGUCUUAU [JL TOV1 3.56] (Eterna round: R97, puzzle: Sensor, turn-off variant 1)
apparent KD of MS2 coat protein (input ligand: FMN 200 uM): 660 nM
apparent KD of MS2 coat protein (input ligand: none): 797 nM

UUUACAAGCUUAUGAUCCCACAUGAGGAUCACCCAUGUUGCUGCCGUGAGGUAGCUUUUAACAUAUGCUCGUCUUAU [JL TOV1 3.39] (Eterna round: R97, puzzle: Sensor, turn-off variant 1)
apparent KD of MS2 coat protein (input ligand: FMN 200 uM): 764 nM
apparent KD of MS2 coat protein (input ligand: none): 838 nM

UUUAGUCGUGACAUGGGUGACAUGAGGAUCACCCAUGUCACAAGCUUGUUGCUCGUCUUAUAAUUAACCCAUGUCAC [LRO Sensor-off var1-15 mod of Stov1-13-A1 by Brourd] (Eterna round: R97, puzzle: Sensor, turn-off variant 1)
apparent KD of MS2 coat protein (input ligand: FMN 200 uM): 19.3 nM
apparent KD of MS2 coat protein (input ligand: none): 19.6 nM

UUUAGUUCAGGAUAUGUAGAUUUUAACAUGAGGAUCACCCAUGUAGAUCCUGAAUUAACUACAGAAGGGAACAUUC [Exclusion 5: 2:c] (Eterna round: R96, puzzle: Exclusion 5)
apparent KD of MS2 coat protein (input ligand: FMN 200 uM): 50.8 nM
apparent KD of MS2 coat protein [1]: 15.6 nM
apparent KD of MS2 coat protein (input ligand: none): 20.7 nM

UUUAGUUCAGGAUAUGUAGAUUUUAACAUGAGGAUCACCCAUGUAGAUCCUGAAUUAACUACAGAAGGGAACAUUC [Exclusion 5: 2:c] (puzzle: Exclusion 5)
apparent KD of MS2 coat protein [3]: 20.9 nM

UUUAUAAUUUCAAUCUUCGCCAACAAACUUACGCUGGCCACAUGAGGAUCACCCAUGUUUUUUGUUCGUUUUAUUCU [Veorenxere] (Eterna round: R96, puzzle: Sensor v3, turn-off variant 2)
apparent KD of MS2 coat protein (input ligand: FMN 200 uM): 25 nM
apparent KD of MS2 coat protein [1]: 62.2 nM
apparent KD of MS2 coat protein (input ligand: none): 27.1 nM

UUUAUAAUUUCAAUCUUCGCCAACAAACUUACGCUGGCCACAUGAGGAUCACCCAUGUUUUUUGUUCGUUUUAUUCU [Veorenxere] (puzzle: Sensor v3, turn-off variant 2)
apparent KD of MS2 coat protein [2]: 18.8 nM
apparent KD of MS2 coat protein [3]: 56.4 nM
apparent KD of MS2 coat protein [4]: 21.9 nM

UUUAUAUAGUAAGGAUAUGUAUUAUUUUUGUCAACAGAAGGUACUGACAUGAGGAUCACCCAUGUUUUAGUGUGGGCAUGUAGU [JMF's solution 99] (Eterna round: R96, puzzle: Exclusion NG 1)
apparent KD of MS2 coat protein [1]: 177 nM

UUUAUGCUAGGAUAUGCACCCUCGAACAUGAGGAUCACCCAUGUACAAUAAACGCAUGAAGCAGAAGGAGCUUCCA [EX5 A.20] (Eterna round: R97, puzzle: Exclusion 5)
apparent KD of MS2 coat protein (input ligand: FMN 200 uM): 56.4 nM
apparent KD of MS2 coat protein (input ligand: none): 37.1 nM

UUUAUGUCAGGAUAUGAGUAGUAGAACAAUAGUACUACUACUCAGAAGGGACAUGAGGAUCACCCAUGUGCCUC [Fiskers Ex 4 Super stable 44 mod 22] (Eterna round: R96, puzzle: Exclusion 4)
apparent KD of MS2 coat protein (input ligand: FMN 200 uM): 326 nM
apparent KD of MS2 coat protein [1]: 32.3 nM
apparent KD of MS2 coat protein (input ligand: none): 40.4 nM

UUUAUGUCAGGAUAUGAGUAGUAGAACAAUAGUACUACUACUCAGAAGGGACAUGAGGAUCACCCAUGUGCCUC [Fiskers Ex 4 Super stable 44 mod 22] (puzzle: Exclusion 4)
apparent KD of MS2 coat protein [3]: 33.6 nM

UUUCAUCAUGUAGGAUAUGUGUGGCGAAGCUAUACAGAAGGACAUGAGGAUCACCCAUGUUCUUGCGUCUGCGUACAGAUGCAA [14th something] (Eterna round: R96, puzzle: Exclusion NG 1)
apparent KD of MS2 coat protein (input ligand: FMN 200 uM): 348 nM
apparent KD of MS2 coat protein [1]: 33.1 nM
apparent KD of MS2 coat protein (input ligand: none): 43.3 nM

UUUCCCUGUGUGAGGAUAUACUUGUUUGGGUUUUUGUAGAAGGCACAUGAGGAUCACCCAUGUAUUUUGUCGUG [JR_BME4_Sub020] (puzzle: Brourd's mod of Exclusion 4)
apparent KD of MS2 coat protein [3]: 40.9 nM

UUUCGGUCAGGAUAUCCCGUACUACUAGCCGCGACUUACGAGGAGAAGGGACAUGAGGAUCACCCAUGUGCGCU [Colors] (Eterna round: R97, puzzle: Exclusion 4)
apparent KD of MS2 coat protein (input ligand: FMN 200 uM): 16.2 nM
apparent KD of MS2 coat protein (input ligand: none): 14.7 nM
